In this assay the target is T1, human NPY2 receptor (human, UniProt P49146 1-381).
T1 construct: whole, on cells; also called hNPY2-R; hNPY2R
T1 sequence (looked up): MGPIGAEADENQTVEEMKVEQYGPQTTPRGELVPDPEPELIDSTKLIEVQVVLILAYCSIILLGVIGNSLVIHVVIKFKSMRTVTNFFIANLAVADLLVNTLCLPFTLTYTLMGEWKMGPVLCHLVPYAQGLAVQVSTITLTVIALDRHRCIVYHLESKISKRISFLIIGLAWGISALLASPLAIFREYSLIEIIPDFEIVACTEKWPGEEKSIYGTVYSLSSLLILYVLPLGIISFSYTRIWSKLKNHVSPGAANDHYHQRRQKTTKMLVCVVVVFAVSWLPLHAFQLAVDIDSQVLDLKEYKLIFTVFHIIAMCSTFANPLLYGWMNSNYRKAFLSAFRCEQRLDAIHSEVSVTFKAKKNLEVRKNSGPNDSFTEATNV
Nature of the assay: RLB: displacement of 125I-PYY(1-36) from hNPY2R membranes.

These results are taken from patent publication US20260015399A1 (Boehringer Ingelheim, published 2026).

*1 amine or outer side, *2 acyl side, *3 side chain or, on linkers, in order; H or OH if unused. Side-chain parts run from the residue outwards. The star is where a group is joined. C18 diacid = O=C(O)CCCCCCCCCCCCCCCCC(=O)*; γGlu = O=C(O)[C@H](CCC(=O)[*:2])N[*:1]; Isovaleryl = CC(C)CC(=O)*; Ahx = NCCCCCC(=O)O

B1: Compound 152 (peptide)
peptide: Isovaleryl-APEK([Ahx-γGlu-C18 diacid])PEEDATPEETQRYYVSLRHYYNWLTRQRY-NH2
SMILES: CC(C)CC(=O)N[C@@H](C)C(=O)N1CCC[C@H]1C(=O)N[C@@H](CCC(=O)O)C(=O)N[C@@H](CCCCNC(=O)CCCCCNC(=O)CC[C@H](NC(=O)CCCCCCCCCCCCCCCCC(=O)O)C(=O)O)C(=O)N1CCC[C@H]1C(=O)N[C@@H](CCC(=O)O)C(=O)N[C@@H](CCC(=O)O)C(=O)N[C@@H](CC(=O)O)C(=O)N[C@@H](C)C(=O)N[C@H](C(=O)N1CCC[C@H]1C(=O)N[C@@H](CCC(=O)O)C(=O)N[C@@H](CCC(=O)O)C(=O)N[C@H](C(=O)N[C@@H](CCC(N)=O)C(=O)N[C@@H](CCCNC(=N)N)C(=O)N[C@@H](Cc1ccc(O)cc1)C(=O)N[C@@H](Cc1ccc(O)cc1)C(=O)N[C@H](C(=O)N[C@@H](CO)C(=O)N[C@@H](CC(C)C)C(=O)N[C@@H](CCCNC(=N)N)C(=O)N[C@@H](Cc1c[nH]cn1)C(=O)N[C@@H](Cc1ccc(O)cc1)C(=O)N[C@@H](Cc1ccc(O)cc1)C(=O)N[C@@H](CC(N)=O)C(=O)N[C@@H](Cc1c[nH]c2ccccc12)C(=O)N[C@@H](CC(C)C)C(=O)N[C@H](C(=O)N[C@@H](CCCNC(=N)N)C(=O)N[C@@H](CCC(N)=O)C(=O)N[C@@H](CCCNC(=N)N)C(=O)N[C@@H](Cc1ccc(O)cc1)C(N)=O)[C@@H](C)O)C(C)C)[C@@H](C)O)[C@@H](C)O
With B1, the Ki was found to be 1.32 nM.

B2: Compound 154 (peptide)
peptide: Isovaleryl-APEK([Ahx-γGlu-C18 diacid])PEEAATPEEIQRYYVALRHYYNWLTRQRY-NH2
SMILES: CC[C@H](C)[C@H](NC(=O)[C@H](CCC(=O)O)NC(=O)[C@H](CCC(=O)O)NC(=O)[C@@H]1CCCN1C(=O)[C@@H](NC(=O)[C@H](C)NC(=O)[C@H](C)NC(=O)[C@H](CCC(=O)O)NC(=O)[C@H](CCC(=O)O)NC(=O)[C@@H]1CCCN1C(=O)[C@H](CCCCNC(=O)CCCCCNC(=O)CC[C@H](NC(=O)CCCCCCCCCCCCCCCCC(=O)O)C(=O)O)NC(=O)[C@H](CCC(=O)O)NC(=O)[C@@H]1CCCN1C(=O)[C@H](C)NC(=O)CC(C)C)[C@@H](C)O)C(=O)N[C@@H](CCC(N)=O)C(=O)N[C@@H](CCCNC(=N)N)C(=O)N[C@@H](Cc1ccc(O)cc1)C(=O)N[C@@H](Cc1ccc(O)cc1)C(=O)N[C@H](C(=O)N[C@@H](C)C(=O)N[C@@H](CC(C)C)C(=O)N[C@@H](CCCNC(=N)N)C(=O)N[C@@H](Cc1c[nH]cn1)C(=O)N[C@@H](Cc1ccc(O)cc1)C(=O)N[C@@H](Cc1ccc(O)cc1)C(=O)N[C@@H](CC(N)=O)C(=O)N[C@@H](Cc1c[nH]c2ccccc12)C(=O)N[C@@H](CC(C)C)C(=O)N[C@H](C(=O)N[C@@H](CCCNC(=N)N)C(=O)N[C@@H](CCC(N)=O)C(=O)N[C@@H](CCCNC(=N)N)C(=O)N[C@@H](Cc1ccc(O)cc1)C(N)=O)[C@@H](C)O)C(C)C
With B2, the inhibition constant Ki turned out to be 3.71 nM.

B3: Compound 156 (peptide)
peptide: Isovaleryl-APEK([Ahx-γGlu-C18 diacid])PEEAAEPEEIQRYYVALRHYYNWLTRQRY-NH2
SMILES: CC[C@H](C)[C@H](NC(=O)[C@H](CCC(=O)O)NC(=O)[C@H](CCC(=O)O)NC(=O)[C@@H]1CCCN1C(=O)[C@H](CCC(=O)O)NC(=O)[C@H](C)NC(=O)[C@H](C)NC(=O)[C@H](CCC(=O)O)NC(=O)[C@H](CCC(=O)O)NC(=O)[C@@H]1CCCN1C(=O)[C@H](CCCCNC(=O)CCCCCNC(=O)CC[C@H](NC(=O)CCCCCCCCCCCCCCCCC(=O)O)C(=O)O)NC(=O)[C@H](CCC(=O)O)NC(=O)[C@@H]1CCCN1C(=O)[C@H](C)NC(=O)CC(C)C)C(=O)N[C@@H](CCC(N)=O)C(=O)N[C@@H](CCCNC(=N)N)C(=O)N[C@@H](Cc1ccc(O)cc1)C(=O)N[C@@H](Cc1ccc(O)cc1)C(=O)N[C@H](C(=O)N[C@@H](C)C(=O)N[C@@H](CC(C)C)C(=O)N[C@@H](CCCNC(=N)N)C(=O)N[C@@H](Cc1c[nH]cn1)C(=O)N[C@@H](Cc1ccc(O)cc1)C(=O)N[C@@H](Cc1ccc(O)cc1)C(=O)N[C@@H](CC(N)=O)C(=O)N[C@@H](Cc1c[nH]c2ccccc12)C(=O)N[C@@H](CC(C)C)C(=O)N[C@H](C(=O)N[C@@H](CCCNC(=N)N)C(=O)N[C@@H](CCC(N)=O)C(=O)N[C@@H](CCCNC(=N)N)C(=O)N[C@@H](Cc1ccc(O)cc1)C(N)=O)[C@@H](C)O)C(C)C
B3 displayed an inhibition constant Ki of 4.2 nM.

B4: Compound 153 (peptide)
peptide: Isovaleryl-APEK([Ahx-γGlu-C18 diacid])PEELATPEELQRYYVSLRHYYNWLTRQRY-NH2
SMILES: CC(C)CC(=O)N[C@@H](C)C(=O)N1CCC[C@H]1C(=O)N[C@@H](CCC(=O)O)C(=O)N[C@@H](CCCCNC(=O)CCCCCNC(=O)CC[C@H](NC(=O)CCCCCCCCCCCCCCCCC(=O)O)C(=O)O)C(=O)N1CCC[C@H]1C(=O)N[C@@H](CCC(=O)O)C(=O)N[C@@H](CCC(=O)O)C(=O)N[C@@H](CC(C)C)C(=O)N[C@@H](C)C(=O)N[C@H](C(=O)N1CCC[C@H]1C(=O)N[C@@H](CCC(=O)O)C(=O)N[C@@H](CCC(=O)O)C(=O)N[C@@H](CC(C)C)C(=O)N[C@@H](CCC(N)=O)C(=O)N[C@@H](CCCNC(=N)N)C(=O)N[C@@H](Cc1ccc(O)cc1)C(=O)N[C@@H](Cc1ccc(O)cc1)C(=O)N[C@H](C(=O)N[C@@H](CO)C(=O)N[C@@H](CC(C)C)C(=O)N[C@@H](CCCNC(=N)N)C(=O)N[C@@H](Cc1c[nH]cn1)C(=O)N[C@@H](Cc1ccc(O)cc1)C(=O)N[C@@H](Cc1ccc(O)cc1)C(=O)N[C@@H](CC(N)=O)C(=O)N[C@@H](Cc1c[nH]c2ccccc12)C(=O)N[C@@H](CC(C)C)C(=O)N[C@H](C(=O)N[C@@H](CCCNC(=N)N)C(=O)N[C@@H](CCC(N)=O)C(=O)N[C@@H](CCCNC(=N)N)C(=O)N[C@@H](Cc1ccc(O)cc1)C(N)=O)[C@@H](C)O)C(C)C)[C@@H](C)O
B4 showed a Ki of 6.8 nM.

B5: Compound 155 (peptide)
peptide: Isovaleryl-APEK([Ahx-γGlu-C18 diacid])PEEDATPEELQRYYVSLRHYYNWLSRQRY-NH2
SMILES: CC(C)CC(=O)N[C@@H](C)C(=O)N1CCC[C@H]1C(=O)N[C@@H](CCC(=O)O)C(=O)N[C@@H](CCCCNC(=O)CCCCCNC(=O)CC[C@H](NC(=O)CCCCCCCCCCCCCCCCC(=O)O)C(=O)O)C(=O)N1CCC[C@H]1C(=O)N[C@@H](CCC(=O)O)C(=O)N[C@@H](CCC(=O)O)C(=O)N[C@@H](CC(=O)O)C(=O)N[C@@H](C)C(=O)N[C@H](C(=O)N1CCC[C@H]1C(=O)N[C@@H](CCC(=O)O)C(=O)N[C@@H](CCC(=O)O)C(=O)N[C@@H](CC(C)C)C(=O)N[C@@H](CCC(N)=O)C(=O)N[C@@H](CCCNC(=N)N)C(=O)N[C@@H](Cc1ccc(O)cc1)C(=O)N[C@@H](Cc1ccc(O)cc1)C(=O)N[C@H](C(=O)N[C@@H](CO)C(=O)N[C@@H](CC(C)C)C(=O)N[C@@H](CCCNC(=N)N)C(=O)N[C@@H](Cc1c[nH]cn1)C(=O)N[C@@H](Cc1ccc(O)cc1)C(=O)N[C@@H](Cc1ccc(O)cc1)C(=O)N[C@@H](CC(N)=O)C(=O)N[C@@H](Cc1c[nH]c2ccccc12)C(=O)N[C@@H](CC(C)C)C(=O)N[C@@H](CO)C(=O)N[C@@H](CCCNC(=N)N)C(=O)N[C@@H](CCC(N)=O)C(=O)N[C@@H](CCCNC(=N)N)C(=O)N[C@@H](Cc1ccc(O)cc1)C(N)=O)C(C)C)[C@@H](C)O
Molecule B5 displayed a Ki of 7.6 nM.
